Test results published in US7598032B2, “Thermostable DNA polymerases incorporating nucleoside triphosphates labeled with fluorescent dyes” (Roche Molecular Systems, priority 1997, dated 2009).

B1: G46D F667Y E681K Taq: thermostable Taq DNA polymerase with G46D, F667Y and E681K mutations, encoded by plasmid pLK113 (protein, UniProt P19821 1-832, looked up, variant G46D F667Y E681K)
DNA polymerase I, thermostable: MRGMLPLFEPKGRVLLVDGHHLAYRTFHALKGLTTSRGEPVQAVYDFAKSLLKALKEDGDAVIVVFDAKAPSFRHEAYGGYKAGRAPTPEDFPRQLALIKELVDLLGLARLEVPGYEADDVLASLAKKAEKEGYEVRILTADKDLYQLLSDRIHVLHPEGYLITPAWLWEKYGLRPDQWADYRALTGDESDNLPGVKGIGEKTARKLLEEWGSLEALLKNLDRLKPAIREKILAHMDDLKLSWDLAKVRTDLPLEVDFAKRREPDRERLRAFLERLEFGSLLHEFGLLESPKALEEAPWPPPEGAFVGFVLSRKEPMWADLLALAAARGGRVHRAPEPYKALRDLKEARGLLAKDLSVLALREGLGLPPGDDPMLLAYLLDPSNTTPEGVARRYGGEWTEEAGERAALSERLFANLWGRLEGEERLLWLYREVERPLSAVLAHMEATGVRLDVAYLRALSLEVAEEIARLEAEVFRLAGHPFNLNSRDQLERVLFDELGLPAIGKTEKTGKRSTSAAVLEALREAHPIVEKILQYRELTKLKSTYIDPLPDLIHPRTGRLHTRFNQTATATGRLSSSDPNLQNIPVRTPLGQRIRRAFIAEEGWLLVALDYSQIELRVLAHLSGDENLIRVFQEGRDIHTETASWMFGVPREAVDPLMRRAAKTINYGVLYGMSAHRLSQKLAIPYEEAQAFIERYFQSFPKVRAWIEKTLEEGRRRGYVETLFGRRRYVPDLEARVKSVREAAERMAFNMPVQGTAADLMKLAMVKLFPRLEEMGARMLLQVHDELVLEAPKERAEAVARLAKEVMEGVYPLAVPLEVEVGIGEDWLSAKE

Tests used:
[1] = molecular target: T1, Thermus aquaticus (Taq) DNA polymerase variant G46D F667Y (Thermus aquaticus, UniProt P19821, F667Y/G46D); assay: Limiting template primer extension competition assay (ddNTP incorporation), G46D F667Y Taq; type: biochemical
T1 construct: Expression vector pRDA3-2 contains the full-length Taq DNA polymerase gene; made in house; host or cells: E. coli DG116 (stated generally for the polymerases of the invention)
Procedure: The ability of the enzymes of this invention to efficiently incorporate nucleotides labeled with fluorescein family dyes is measured by ddNTP incorporation assays. One such assay is a primer extension competition assay conducted under conditions of limiting template. In this assay, a primer DG48 (5′-[…]), (SEQ ID NO: 11), bound to M13 mp18 template (Innis et al., 1988, Proc. Natl. Acad. Sci. USA 85:9436) is extended in the presence of [α-^33P]dCTP and excess enzyme with various levels of a fluorescently labeled ddNTP, Zowie-ddCTP. Because the incorporation of a ddCTP residue terminates the extension reaction, the more readily a DNA polymerase incorporates a ddCTP into an extended primer, the less [α-^33P]dCTP can be incorporated. Thus, as the efficiency of fluorescently labeled ddCTP incorporation increases, the extent of inhibition of DNA synthesis is increased. The reactions were also performed with various levels of an unlabeled ddCTP. […]
The relative abilities of G46D F667Y Taq, G46D F667Y E681K Taq and F730Y Tma30 DNA polymerases to incorporate a fluorescein dye family-labeled ddCTP were compared by use of a limiting template, primer extension competition assay. […] In this competition assay, because the incorporation of a ddCTP terminates the extension reaction, the more readily the polymerase incorporates a ddCTP into an extended primer, the less [α-^33P]dCTP can be incorporated. […]

[2] = test system: M13 mp18 single-strand DNA template; assay: Cycle sequencing with fluorescein labeled ddNTPs (dye-terminator sequencing); type: biochemical
Procedure: The fluorescein dye labeled dideoxy terminators are reagents from the Applied Biosystems PRISM Sequenase® Terminator Sequencing Kits (Perkin-Elmer, Norwalk, Conn.) and were optimized for use with Sequenase DNA polymerase and alpha-thio dNTPs. Cycle sequencing reactions were performed in a 20 μl volume containing 50 mM Tris-HCl (pH 8.8), 2.0 mM MgCl2, 100 μM each dATP, dCTP, and dTTP (Perkin-Elmer, Norwalk, Conn.), 500 μM dITP (Pharmacia Biotech, Piscataway, N.J.), 0.2 μM13 mp18 single-strand DNA template (Perkin-Elmer), 0.15 μM LacZ Forward Primer (Perkin-Elmer), 5 units of G46D F667Y E681K Taq DNA polymerase, 20 units of rTth Thermostable Pyrophosphatase (U.S. Ser. No. 08/528,384), 0.05 μM Sequenase A Dye Terminator, 0.80 μM Sequenase C Dye Terminator, 0.08 μM Sequenase G Dye Terminator, and 1.0 μM Sequenase T Dye Terminator. All four Sequenase Dye Terminators were purchased from Perkin-Elmer. Reactions were placed in a preheated (75° C.) Perkin-Elmer GeneAmp® PCR System 9600 thermal cycler and subjected to 25 cycles of 96° C. for 10 seconds, 50° C. for 5 seconds, and 60° C. for 4 minutes. Dye labeled fragments were purified with Centri-Sep™ columns (Princeton Separations, Adelphia, N.J.) following the manufacturer's instructions and dried in a vacuum centrifuge. Pellets were resuspended in 6 μl of deionized formamide:50 mg/mL Blue dextran (in 25 mM EDTA, pH 8.0) 5:1 (v/v), heated at 90° C. for 3 minutes, and directly loaded onto a pre-electrophoresed 4% polyacrylamide/6 M urea gel and electrophoresed and analyzed on a Perkin-Elmer ABI PRISM' 377 DNA Sequencer according to the manufacturer instructions (ABI PRISM 377 DNA Sequencer User's Manual).

T1 sequence (P19821 whole entry G46D/F667Y): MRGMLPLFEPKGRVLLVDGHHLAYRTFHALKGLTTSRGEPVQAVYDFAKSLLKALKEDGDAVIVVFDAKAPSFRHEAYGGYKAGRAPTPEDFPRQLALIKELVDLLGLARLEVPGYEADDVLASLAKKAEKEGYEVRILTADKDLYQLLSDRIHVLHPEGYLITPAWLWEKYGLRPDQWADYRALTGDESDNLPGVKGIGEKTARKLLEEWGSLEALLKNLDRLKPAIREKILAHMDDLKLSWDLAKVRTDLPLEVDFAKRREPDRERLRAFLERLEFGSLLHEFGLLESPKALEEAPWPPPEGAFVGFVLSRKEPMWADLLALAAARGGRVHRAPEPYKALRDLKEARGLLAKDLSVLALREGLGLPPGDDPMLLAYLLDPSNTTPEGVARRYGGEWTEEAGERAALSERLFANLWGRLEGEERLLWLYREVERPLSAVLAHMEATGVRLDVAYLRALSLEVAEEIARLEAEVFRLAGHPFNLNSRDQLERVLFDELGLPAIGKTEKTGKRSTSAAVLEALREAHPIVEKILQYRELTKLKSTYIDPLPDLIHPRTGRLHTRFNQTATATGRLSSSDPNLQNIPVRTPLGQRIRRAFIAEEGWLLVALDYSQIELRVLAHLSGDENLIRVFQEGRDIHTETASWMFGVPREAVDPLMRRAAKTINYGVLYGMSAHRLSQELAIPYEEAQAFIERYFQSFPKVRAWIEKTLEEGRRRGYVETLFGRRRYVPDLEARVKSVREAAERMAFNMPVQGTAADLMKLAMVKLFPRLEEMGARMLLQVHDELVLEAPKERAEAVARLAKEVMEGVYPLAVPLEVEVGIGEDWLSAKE

Molecule	IC50 [1] [nM]	accuracy of automated base-calling ([2]; for 450 bases, ABI PRISM 377 DNA Sequencer, 1 μM or less ddNTP)	base-calling errors ([2]; for bases +10 to +460 from primer) [errors]	sequencing ladder with fluorescein dye family-labeled ddNTPs ([2]; sequencing reaction with fluorescein dye family-labeled ddNTPs)
Nc1ccn([C@H]2CC[C@@H](COP(=O)(O)OP(=O)(O)OP(=O)(O)O)O2)c(=O)n1 [ddCTP]	56			
B1		greater than 98.5%	6	readable sequencing ladder
